This sample holds only a part of the variants without activity.
B1: TPR 5TU (parent)
chain: GGAUCUUCUCGAUCUAACAAAAAAGACAAAUCUGCCACAAAGCUUGAGAGCAUCUUCGGAUGCAGAGGCGGCAGCCUUCGGUGGCGCGAUAGCGCCAACGUUCUCAACUAUGACACGCAAAACGCGUGCUCCGUUGAAUGGAGUUUAUCAUG

Variants of: B1
Experiment: polymerase ribozyme fitness, log enrichment relative to wild type (log ratio); higher = more active; in vitro selection for triplet polymerase activity
Method in brief: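 Fitness measures genotype enrichment against wild-type enrichment on a logarithmic scale, with inverse-variance-weighted averaging of replicates. The logarithm is base 2, and genotypes were kept only with ≥10 input reads and ≥1 read per output in Illumina sequencing. The sequenced libraries came from one triplicate in vitro selection round, including frozen incubation at −7 °C, of PCR-built, transcribed mutant libraries of each subunit of a heterodimeric triplet polymerase ribozyme.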

| Variant | polymerase ribozyme fitness (log ratio) |
| --- | --- |
| U6G U33A G42U C57U A64C C85G A107G G117C | ≤ -4.2 |
| U6G A39G A49C | ≤ -4.2 |
| U7G A20C C38A G83A | -3.16 |
| U7G A21U | -2.97 |
| U6A U45A | -2.51 |
| U7A A17U A24G U56A C93U U134A | ≤ -4.2 |
| U6C A26G A29U A73G C96A U104G | -3.88 |
| U6C C10G A28U C57U C63U U77A C85U G86U U144C | ≤ -4.2 |
| U7A A64U G74A C79A C85A G94U U130G | ≤ -4.2 |
| U6G A16G A24C U145C | ≤ -4.2 |
| U6G C35U G58C A73G G140U | ≤ -4.2 |
| U6G U45C C76A C93G C103A | ≤ -4.2 |
| U6G A12U | -0.722 |
| U6G C54A C75G C85A C105U A106U U111A G136U | ≤ -4.2 |
| U7A A29C A41U G94C | ≤ -4.2 |
| U6G A28U C38U A66G C95G A120U A150U | ≤ -4.2 |
| U6G A52C C96G A115G | -3.74 |
| U6G A20C C38U C57U U61A C76G G94C A97G U145G | ≤ -4.2 |
| U7A A28C C57U C87G C95U C125A | ≤ -4.2 |
| U7G C14G U55G G58U G80C A107G C118U G140C | ≤ -4.2 |
| U6A G81C G94U A113U C114U U151C | ≤ -4.2 |
| U7C C14U U53A C96U U104C C116A G124U U135G | ≤ -4.2 |
| U7A A22U U44A C51U G67A G94C C99U G141C | ≤ -4.2 |
| U6C A21U C85U | -0.501 |

| Variant | polymerase ribozyme fitness (log ratio) |
| --- | --- |
| U6G A21U U45C A66U G141A U151A | ≤ -4.2 |
| U6G U31G A73G G86A A137U | ≤ -4.2 |
| U6A U33A U55G C57U C79G G92A C131U | ≤ -4.2 |
| U7A A40C C54A G59C C87U | ≤ -4.2 |
| U7C U53A | -2.82 |
| U6G A22U C87U | 0.101 |
| U6G G92U C105A C114G A142U | ≤ -4.2 |
| U6G A12C C35G A60C C75G A110G | ≤ -4.2 |
| U7A C87U C96A A150U | -3.72 |
| U7A C32U C35U U90C G141C G143C | ≤ -4.2 |
| U7A U61A A119U | ≤ -4.2 |
| U7A C35A A39U G50A G92U C95A U130A U135A | ≤ -4.2 |
| U7A G11C A52G A89C A91G C95U U111C C131U | ≤ -4.2 |
| U6C A21G C27A C54U G80C C87A U109C A147U | ≤ -4.2 |
| U6G A17C A37G A52C C54U C96A A122U U134C | ≤ -4.2 |
| U7A C51U | -3.25 |
| U7A C63U A73G A120G U146A | ≤ -4.2 |
| U6C C27G C32A U53A A142U C149G | ≤ -4.2 |
| U7A A30U C32U C43U A60U C96A A107U | -3.92 |
| U6G C57A U61A G65A A121U G126A | -3.12 |
| U7G A17C A39C A91G C114G | ≤ -4.2 |
| U7G C18U A30U G59U U77A G83C A138C | ≤ -4.2 |
| U6C A49C C99A U146C | ≤ -4.2 |
| U7A C38U G65A A107G G136U U146C | ≤ -4.2 |

| Variant | polymerase ribozyme fitness (log ratio) |
| --- | --- |
| U7A G42A C85U A113U C116U C125G | ≤ -4.2 |
| U6G U7C A49G G71A C93G | ≤ -4.2 |
| U6G A73G | -0.521 |
| U6G A73C | -2.87 |
| U7A G11U G50A A64G G68A C72U C87U A115U A122G C149A U151A | ≤ -4.2 |
| U6C A49U C63G | -2.48 |
| U6A C125G | -0.431 |
| U6C A40U C51U A52C C99U G112C | ≤ -4.2 |
| U6G C57A U102G | -1.76 |
| U6G A21U C93U U127G | -3.85 |
| U7A G62C | ≤ -4.2 |
| U6G C93A A98G | -1.61 |
| U6G G11A A19C A21C A24G C36G U56A U82A A142C | ≤ -4.2 |
| U6C C36A G67C C85U G124C C132U | ≤ -4.2 |
| U6C A23U U31G G62A C95U C99G G100U C114U C129U | ≤ -4.2 |
| U6C C35G A66G C96U U109A G126U | ≤ -4.2 |
| U6A U139C | -3.88 |
| U7A A29G C85A C114A A121G U134C | ≤ -4.2 |
| U7A C93U | -3.98 |
| U7A C93G | ≤ -4.2 |
| U6G A16U C38U G83C U139A G141A | ≤ -4.2 |
| U6G C76U C93G | -2.95 |
| U6C C14A A49U G50U A52G C93G C99G | ≤ -4.2 |
| U6A G25C G141A U146A | -2.69 |

| Variant | polymerase ribozyme fitness (log ratio) |
| --- | --- |
| U6G C14A C79A U145C | ≤ -4.2 |
| U7C U13G A20C U31A C51U U53G C87G A89G C93U U139C A142U G143U G152A | ≤ -4.2 |
| U7A C93U A115G | ≤ -4.2 |
| U7G A39U C69U C95U C129G | ≤ -4.2 |
| U6C A47U | -0.576 |
| U7C C93G | -4.04 |
| U7G A23C A47C U53A C116A | ≤ -4.2 |
| U6G A40U A115G | -1.66 |
| U7C C8G A20U U55A A66U G88A C99G G143U | ≤ -4.2 |
| U7G A52U G140C | ≤ -4.2 |
| U7C C35U C87G U104G | -4.04 |
| U7C A16U G50A C54A C57A C72G C85G A98U G141A | ≤ -4.2 |
| U7C C85U | -2.04 |
| U7C C85G | -3.47 |
| U6G C10G G68A C69U G84A | ≤ -4.2 |
| U6G A12U G42C C76U C96G U134G U146G | ≤ -4.2 |
| U7A C32G A66C G68A C87A G128U G136C | ≤ -4.2 |
| U6C U78G U111G U134C | -4.14 |
| U7A U9G | -3.64 |
| U6C C76G G124U G128U | ≤ -4.2 |
| U7A C14G U31C G86A | ≤ -4.2 |
| U7C C35A C87A C95U C116G | ≤ -4.2 |
| U6C G48C G59U U145C | -0.905 |
| U6G A47G U53G U55A C76G C85G C103G G128U C129A U145G | ≤ -4.2 |

| Variant | polymerase ribozyme fitness (log ratio) |
| --- | --- |
| U7A A16U G58C G71C C93U A115C U134C | ≤ -4.2 |
| U6G U15A A20G C87U | -0.616 |
| U7A C72G G80C C96U U104C A122G U146A | ≤ -4.2 |
| U6G C96A A122U | -0.578 |
| U7C A12U | -2.57 |
| U6C G50C G59A G68U A137C | ≤ -4.2 |
| U7C U53A C85U | -3.46 |
| U6C C10A C14G A49C C57U A91C C114U | ≤ -4.2 |
| U6G A12U A22C G59C U61G A73U | ≤ -4.2 |
| U7C A113G U139C | ≤ -4.2 |
| U6A G50C G86U U102C A121C | ≤ -4.2 |
| U6G U53A G80U | ≤ -4.2 |
| U6G G46U G88C U134A A138G | ≤ -4.2 |
| U6G A23C G88C A97U | ≤ -4.2 |
| U6G U15A C95G C96U U101G C103A C131A C149A | ≤ -4.2 |
| U7G A21G U61G C85U C87A A106C | ≤ -4.2 |
| U6C A40C G50U A97U U104A G124C U130A | ≤ -4.2 |
| U6C U45A | -3.75 |
| U6C A22U U31G C93A C114G | ≤ -4.2 |
| U7C C38A | -2.38 |
| U7C U53G G94A | ≤ -4.2 |
| U7A A37G A47C G59C C72U G84C G88A C108A G141C | ≤ -4.2 |
| U7C G50A G58A G68A A97C G141C U146A | ≤ -4.2 |
| U6G A26U A37C G50C U53A C57A U82G C103G | ≤ -4.2 |

| Variant | polymerase ribozyme fitness (log ratio) |
| --- | --- |
| U6C C32U C54A | -4 |
| U6G C35U A91G A98G | -4.08 |
| U7A G11A C32U C35G A41U U55A C87G C95A C114U | ≤ -4.2 |
| U6G A19G U44A U82C C95U U139G | ≤ -4.2 |
| U6G G94A A115C | -1.5 |
| U7G A17U A52C C85U C116A | -3.83 |
| U6G A73G C87U G136U | -2.92 |
| U7C C8U U45A G68C C87G A91C | ≤ -4.2 |
| U6A U9A G92C C114A C118U C123G | ≤ -4.2 |
| U7C G50U | -2.42 |
| U7G A17C A142U U146C | -3.89 |
| U6G A52G A106C C116A | -0.169 |
| U7A C32G U33C C87A C96U U101C C116A U145G U146C | ≤ -4.2 |
| U7A G42U C76G C96G C99A U144A C149G | ≤ -4.2 |
| U7A G25U A39C A49U C54G C95U U111G | ≤ -4.2 |
| U6G A98U | -0.985 |
| U6G A52C U55C G71A G86C A119U | ≤ -4.2 |
| U6G C10A A40G A60G C75A G80C A107U G126A G133U U139G G143C | ≤ -4.2 |
| U7G A41U U53A C54U U56A C57A G71U C95A G112C | ≤ -4.2 |
| U6A U15G G46C C76U C93G | ≤ -4.2 |
| U6G G62C U82G | -0.631 |
| U6G U9G U31A G48A C76G C87A U111C G140U | ≤ -4.2 |
| U7G A22G C36A U56G G62U G88A | ≤ -4.2 |
| U6G U146A | -1.17 |

| Variant | polymerase ribozyme fitness (log ratio) |
| --- | --- |
| U7C C38U G62C | -3.44 |
| U6G A16G C85U C125A | -1.05 |
| U7A C54A G58C G92C A107U C116A | ≤ -4.2 |
| U7A C14G U15G G88A | -3.61 |
| U6C C38U A121U U127A G128U | -4.07 |
| U6C U55G | -0.825 |
| U6C G74U U102A C123A | ≤ -4.2 |
| U6C A26U C35A A73G C75U C93A C116A A138C | ≤ -4.2 |
| U6G A20U G25A U31G C87A C96U C129A G136A G140C A150C | ≤ -4.2 |
| U6C G71A G92A A97G G141U | ≤ -4.2 |
| U6G A142U | -0.0461 |
| U6G C38A A41C C95U U104C G126U | -2.03 |
| U6C C18G A23G C27U A30G C54U C63A G84A C103U | ≤ -4.2 |
| U6G C38U C43U A91U C95G U102G | ≤ -4.2 |
| U6A U7G U13A C35A C54A G71U A91U U101A U127C G141U | ≤ -4.2 |
| U7A A17U G25C G88C C116A | ≤ -4.2 |
| U6C U31C A119G | -0.646 |
| U7C A41C C51U C54G U55A G58A C76G C87G C103A C125U | ≤ -4.2 |
| U6G A26U A52G G141U U145G | ≤ -4.2 |
| U6G G50U G83C A120U | -0.29 |
| U7A C96U | -2.73 |
| U6A U9G C14G G83C G112U G136C | ≤ -4.2 |
| U6G A40C U144A | 0.287 |
